B1: Limonene-1,2-epoxide hydrolase, Q9ZAG3 (parent)
chain: MTSKIEQPRWASKDSAAGAASTPDEKIVLEFMDALTSNDAAKLIEYFAEDTMYQNMPLPPAYGRDAVEQTLAGLFTVMSIDAVETFHIGSSNGLVYTERVDVLRALPTGKSYNLSILGVFQLTEGKITGWRDYFDLREFEEAVDLPLRG

Variants of: B1
Conditions: Rhodococcus erythropolis; pH 7.1; Thermal; Fluorescence; Potassium phosphate 50mM; transition: 2; reversible: no; structure 1NWW; whole UniProt chain shown

Variant	Tm [°C]	change of melting temperature, mutant - wild type (higher = more stable) [°C]
D24R	45	-3.8
D24C L122C	36	-12.8
I5C E84C	64	15.2
T85I	54.6	5.8
T85P	42.8	-6
T85L	51.3	2.5
T85V	55.6	6.8
D65E	49.3	0.5
A16R	48.3	-0.5
S111R	48.8	0
S111K	46.5	-2.3
E68Q	49.3	0.5
I27M	47	-1.8
L94F	48.8	0
M52C G129C	40	-8.8
S15P	49	0.2
S15K	48.5	-0.3
Y96F	51.6	2.8
L106R	46.5	-2.3
E124D	50.1	1.3

Variant	Tm [°C]	change of melting temperature, mutant - wild type (higher = more stable) [°C]
E124R	46	-2.8
E124K	47.5	-1.3
A17C L94C	56	7.2
A41R	48.8	0
A41S	49.1	0.3
E45K	50.8	2
E45R	47.8	-1
K4C A82C	59	10.2
K13P	44.8	-4
G89C S91C	66	17.2
T76K	50.3	1.5
A142R	46	-2.8
M32C V83C	44	-4.8
G18N	49.1	0.3
P57C D135C	35	-13.8
S12R	49	0.2
A105C V143C	46.5	-2.3
A66P	49.6	0.8
Y62W	48.8	0
Q69R	49.1	0.3

Variant	Tm [°C]	change of melting temperature, mutant - wild type (higher = more stable) [°C]
K110R	47.3	-1.5
I44C E68C	56	7.2
A20P	46.7	-2.1
A17C N92C	64	15.2
K42R	47.5	-1.3
L122F	41.3	-7.5
D50P	42.8	-6
A48C K126C	53	4.2
A72R	47	-1.8
V102C	62	13.2
A19K	51.3	2.5
Q121V	38.8	-10
I127F	46.3	-2.5
Y112C A142C	56	7.2
D33R	46.5	-2.3
D33K	47.3	-1.5
N92R	50.6	1.8
N92K	56.1	7.3
